Patent US20110166062A1 (INDIANA UNIVERSITY RESEARCH AND TECHNOLOGY, published 2011)
Like-named read-outs stand apart in the source and are kept apart here. Bridges are numbered along the chain shown (N, C = ends). Primed or numbered codes have the meaning given here. Where no end group is shown, it is not given here. [ ]: non-standard residue; d: D form. The star is where a group is joined. PEG 40 kDa″ = polyethylene glycol of 40 kDa covalently attached to the side chain; Palmitoyl = CCCCCCCCCCCCCCCC(=O)*; Aib = CC(C)(N)C(=O)O

T1: GIP receptor (UniProt P48546 22-466)
T1 sequence (looked up): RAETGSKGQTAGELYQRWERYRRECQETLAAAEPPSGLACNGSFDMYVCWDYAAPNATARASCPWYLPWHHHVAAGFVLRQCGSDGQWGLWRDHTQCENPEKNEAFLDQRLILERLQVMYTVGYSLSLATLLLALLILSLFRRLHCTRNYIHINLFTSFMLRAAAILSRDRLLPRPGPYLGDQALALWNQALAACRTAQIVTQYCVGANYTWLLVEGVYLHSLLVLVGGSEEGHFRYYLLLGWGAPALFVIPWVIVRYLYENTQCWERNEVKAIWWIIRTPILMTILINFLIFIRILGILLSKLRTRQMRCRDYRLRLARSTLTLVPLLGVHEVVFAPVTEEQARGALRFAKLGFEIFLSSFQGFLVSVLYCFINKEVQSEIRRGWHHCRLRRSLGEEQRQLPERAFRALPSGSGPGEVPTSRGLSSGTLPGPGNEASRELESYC

T2: GIP receptor (UniProt P48546 22-466)
T2 sequence (looked up): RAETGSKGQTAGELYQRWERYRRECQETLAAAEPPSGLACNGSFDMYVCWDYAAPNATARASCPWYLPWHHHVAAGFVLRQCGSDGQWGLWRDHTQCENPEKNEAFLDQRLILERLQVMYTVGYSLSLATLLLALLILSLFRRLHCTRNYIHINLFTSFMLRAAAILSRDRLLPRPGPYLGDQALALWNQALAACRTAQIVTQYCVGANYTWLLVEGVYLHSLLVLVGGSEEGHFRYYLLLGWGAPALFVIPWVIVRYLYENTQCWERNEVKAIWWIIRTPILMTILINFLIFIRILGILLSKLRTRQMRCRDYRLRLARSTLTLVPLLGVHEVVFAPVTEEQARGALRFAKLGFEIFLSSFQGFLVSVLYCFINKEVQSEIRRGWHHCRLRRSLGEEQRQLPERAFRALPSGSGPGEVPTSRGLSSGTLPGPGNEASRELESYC

B1: mt-356 (peptide)
peptide: Y[Aib]QGTFTSDYSIYLDKQAA[Aib]EFVNWLMNGGPSSGAPPPSK-NH2
modifications: N-terminus assumed
SMILES: CC[C@H](C)[C@H](NC(=O)[C@H](CO)NC(=O)[C@H](Cc1ccc(O)cc1)NC(=O)[C@H](CC(=O)O)NC(=O)[C@H](CO)NC(=O)[C@@H](NC(=O)[C@H](Cc1ccccc1)NC(=O)[C@@H](NC(=O)CNC(=O)[C@H](CCC(N)=O)NC(=O)C(C)(C)NC(=O)[C@@H](N)Cc1ccc(O)cc1)[C@@H](C)O)[C@@H](C)O)C(=O)N[C@@H](Cc1ccc(O)cc1)C(=O)N[C@@H](CC(C)C)C(=O)N[C@@H](CC(=O)O)C(=O)N[C@@H](CCCCN)C(=O)N[C@@H](CCC(N)=O)C(=O)N[C@@H](C)C(=O)N[C@@H](C)C(=O)NC(C)(C)C(=O)N[C@@H](CCC(=O)O)C(=O)N[C@@H](Cc1ccccc1)C(=O)N[C@H](C(=O)N[C@@H](CC(N)=O)C(=O)N[C@@H](Cc1c[nH]c2ccccc12)C(=O)N[C@@H](CC(C)C)C(=O)N[C@@H](CCSC)C(=O)N[C@@H](CC(N)=O)C(=O)NCC(=O)NCC(=O)N1CCC[C@H]1C(=O)N[C@@H](CO)C(=O)N[C@@H](CO)C(=O)NCC(=O)N[C@@H](C)C(=O)N1CCC[C@H]1C(=O)N1CCC[C@H]1C(=O)N1CCC[C@H]1C(=O)N[C@@H](CO)C(=O)N[C@@H](CCCCN)C(N)=O)C(C)C
B2: mt-209 (peptide)
peptide: Y[Aib]QGTFTSEYSKYLDEQAAKEFVNWLLAGGPSSGAPPPSC-NH2
modifications: lactam 9-12, 16-20; not fully specified
B3: mt-358 (peptide)
peptide: Y[Aib]QGTFISDYSIYLDKQAA[Aib]EFVNWLLAGGPSSGAPPPSK(Palmitoyl)-NH2
modifications: N-terminus assumed
SMILES: CCCCCCCCCCCCCCCC(=O)NCCCC[C@H](NC(=O)[C@H](CO)NC(=O)[C@@H]1CCCN1C(=O)[C@@H]1CCCN1C(=O)[C@@H]1CCCN1C(=O)[C@H](C)NC(=O)CNC(=O)[C@H](CO)NC(=O)[C@H](CO)NC(=O)[C@@H]1CCCN1C(=O)CNC(=O)CNC(=O)[C@H](C)NC(=O)[C@H](CC(C)C)NC(=O)[C@H](CC(C)C)NC(=O)[C@H](Cc1c[nH]c2ccccc12)NC(=O)[C@H](CC(N)=O)NC(=O)[C@@H](NC(=O)[C@H](Cc1ccccc1)NC(=O)[C@H](CCC(=O)O)NC(=O)C(C)(C)NC(=O)[C@H](C)NC(=O)[C@H](C)NC(=O)[C@H](CCC(N)=O)NC(=O)[C@H](CCCCN)NC(=O)[C@H](CC(=O)O)NC(=O)[C@H](CC(C)C)NC(=O)[C@H](Cc1ccc(O)cc1)NC(=O)[C@@H](NC(=O)[C@H](CO)NC(=O)[C@H](Cc1ccc(O)cc1)NC(=O)[C@H](CC(=O)O)NC(=O)[C@H](CO)NC(=O)[C@@H](NC(=O)[C@H](Cc1ccccc1)NC(=O)[C@@H](NC(=O)CNC(=O)[C@H](CCC(N)=O)NC(=O)C(C)(C)NC(=O)[C@@H](N)Cc1ccc(O)cc1)[C@@H](C)O)[C@@H](C)CC)[C@@H](C)CC)C(C)C)C(N)=O
B4: mt-241 (peptide)
peptide: Y[Aib]QGTFTSDYSIYLD[Aib]QAAKEFVNWLLAGGPSSGAPPPSC-NH2
modifications: N-terminus assumed
SMILES: CC[C@H](C)[C@H](NC(=O)[C@H](CO)NC(=O)[C@H](Cc1ccc(O)cc1)NC(=O)[C@H](CC(=O)O)NC(=O)[C@H](CO)NC(=O)[C@@H](NC(=O)[C@H](Cc1ccccc1)NC(=O)[C@@H](NC(=O)CNC(=O)[C@H](CCC(N)=O)NC(=O)C(C)(C)NC(=O)[C@@H](N)Cc1ccc(O)cc1)[C@@H](C)O)[C@@H](C)O)C(=O)N[C@@H](Cc1ccc(O)cc1)C(=O)N[C@@H](CC(C)C)C(=O)N[C@@H](CC(=O)O)C(=O)NC(C)(C)C(=O)N[C@@H](CCC(N)=O)C(=O)N[C@@H](C)C(=O)N[C@@H](C)C(=O)N[C@@H](CCCCN)C(=O)N[C@@H](CCC(=O)O)C(=O)N[C@@H](Cc1ccccc1)C(=O)N[C@H](C(=O)N[C@@H](CC(N)=O)C(=O)N[C@@H](Cc1c[nH]c2ccccc12)C(=O)N[C@@H](CC(C)C)C(=O)N[C@@H](CC(C)C)C(=O)N[C@@H](C)C(=O)NCC(=O)NCC(=O)N1CCC[C@H]1C(=O)N[C@@H](CO)C(=O)N[C@@H](CO)C(=O)NCC(=O)N[C@@H](C)C(=O)N1CCC[C@H]1C(=O)N1CCC[C@H]1C(=O)N1CCC[C@H]1C(=O)N[C@@H](CO)C(=O)N[C@@H](CS)C(N)=O)C(C)C
B5: mt-208 (peptide)
peptide: Y[Aib]EGTFTSDYSIYLDEQAAKEFVNWLLAGKGKKNWLKHNITQC(PEG 40 kDa″)-NH2
modifications: lactam 16-20
B6: mt-376 (peptide)
peptide: YXEGTFTSDYSIYLDKQAAXEFVNWLLAGGPSSGAPPPSKC
modifications: C-terminal amide; acylation at position 40 of each monomer, no spacer; monomers linked via a PEG at C-terminal Cys residues

How the values were obtained:
Experiment in all cases: cell-based or functional assay
glucagon receptor [1] = molecular target: glucagon receptor (UniProt P47871 26-477, limits assumed)
Target sequence in this assay (P47871 26-477 limits assumed): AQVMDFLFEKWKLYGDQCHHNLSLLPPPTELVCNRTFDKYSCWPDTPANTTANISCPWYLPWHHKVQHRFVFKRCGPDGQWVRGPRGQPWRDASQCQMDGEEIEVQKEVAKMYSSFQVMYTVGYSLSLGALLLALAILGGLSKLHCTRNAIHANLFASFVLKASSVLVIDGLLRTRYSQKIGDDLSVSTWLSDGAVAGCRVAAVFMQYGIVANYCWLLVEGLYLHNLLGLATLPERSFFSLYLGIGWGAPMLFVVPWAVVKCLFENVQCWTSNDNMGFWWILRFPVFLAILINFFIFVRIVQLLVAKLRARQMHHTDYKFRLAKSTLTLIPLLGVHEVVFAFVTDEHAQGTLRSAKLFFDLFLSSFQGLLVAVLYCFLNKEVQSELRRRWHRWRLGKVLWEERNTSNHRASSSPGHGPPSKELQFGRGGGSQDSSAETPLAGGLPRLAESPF

GLP-1 receptor [2] = molecular target: GLP-1 receptor (UniProt P43220 24-463, limits assumed)
GIP receptor [3] = molecular target: T1, GIP receptor
glucagon receptor [4] = molecular target: T3, glucagon receptor (UniProt P47871 26-477, limits assumed); remark: listed apart in the source
T3 sequence (P47871 26-477 limits assumed): as above

GLP-1 receptor [5] = molecular target: T4, GLP-1 receptor (UniProt P43220 24-463, limits assumed); remark: listed apart in the source
GIP receptor [6] = molecular target: T2, GIP receptor; remark: listed apart in the source
glucagon receptor [7] = molecular target: T3, glucagon receptor; remark: listed apart in the source
GLP-1 receptor [8] = molecular target: T4, GLP-1 receptor; remark: listed apart in the source
GIP receptor [9] = molecular target: T2, GIP receptor; remark: listed apart in the source

Row | Binder | EC50, nM; Glucagon Receptor (glucagon receptor [1]) [nM] | relative activity; Glucagon Receptor (glucagon receptor [1]) [%] | EC50, nM; GLP-1 Receptor (GLP-1 receptor [2]) [nM] | relative activity; GLP-1 Receptor (GLP-1 receptor [2]) [%] | EC50, nM; GIP Receptor (GIP receptor [3]) [nM] | relative activity; GIP Receptor (GIP receptor [3]) [%] | EC50 (glucagon receptor [4]) [pM] | relative activity (glucagon receptor [4]) [%] | EC50 (GLP-1 receptor [5]) [pM] | EC50 (GIP receptor [6]) [pM] | other results
1 | B1 | 0.0869 | 126 | 0.0048 | 224 | 0.053 | 25.7 | – | – | – | – | –
2 | B2 | – | – | – | – | – | – | 4660 | 0.9 | 2340 | 1050 | relative activity (GLP-1 receptor [5]): 1.33%; relative activity (GIP receptor [6]): 1.42%
3 | B3 | 0.0087 | 1270 | 0.083 | 13 | 0.0045 | 306 | – | – | – | – | –
4 | B4 | – | – | – | – | – | – | – | – | – | – | EC50 (glucagon receptor [7]): 2840 pM; relative activity (glucagon receptor [7]): 3.73%; EC50 (GLP-1 receptor [8]): 23 pM; relative activity (GLP-1 receptor [8]): 130%; EC50 (GIP receptor [9]): 252 pM; relative activity (GIP receptor [9]): 4.37%
5 | B5 | – | – | – | – | – | – | 448000 | 0.01 | 262 | 313 | –
6 | B6 | – | – | 0.0106 | – | 0.0068 | – | – | – | – | – | –
